Data set [1] concerns the target T1, recombinant human iduronate-2 sulfatase (rhIDS).
T1 chain: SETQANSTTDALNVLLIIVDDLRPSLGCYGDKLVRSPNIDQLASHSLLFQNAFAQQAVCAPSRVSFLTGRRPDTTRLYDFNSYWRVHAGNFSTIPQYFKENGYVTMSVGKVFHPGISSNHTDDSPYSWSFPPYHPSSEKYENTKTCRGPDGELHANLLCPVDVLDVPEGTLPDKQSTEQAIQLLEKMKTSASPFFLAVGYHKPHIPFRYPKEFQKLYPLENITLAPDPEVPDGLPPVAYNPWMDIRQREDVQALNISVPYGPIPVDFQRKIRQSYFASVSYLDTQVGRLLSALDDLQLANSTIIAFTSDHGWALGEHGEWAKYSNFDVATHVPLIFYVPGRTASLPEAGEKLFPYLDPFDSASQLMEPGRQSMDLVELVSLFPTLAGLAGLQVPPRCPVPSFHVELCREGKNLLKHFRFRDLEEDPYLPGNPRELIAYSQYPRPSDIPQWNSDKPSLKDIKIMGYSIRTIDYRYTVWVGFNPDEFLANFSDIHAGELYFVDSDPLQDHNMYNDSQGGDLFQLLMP

Data set [2] has as its target T2, recombinant human sulfamidase (rSGSH).
T2 chain: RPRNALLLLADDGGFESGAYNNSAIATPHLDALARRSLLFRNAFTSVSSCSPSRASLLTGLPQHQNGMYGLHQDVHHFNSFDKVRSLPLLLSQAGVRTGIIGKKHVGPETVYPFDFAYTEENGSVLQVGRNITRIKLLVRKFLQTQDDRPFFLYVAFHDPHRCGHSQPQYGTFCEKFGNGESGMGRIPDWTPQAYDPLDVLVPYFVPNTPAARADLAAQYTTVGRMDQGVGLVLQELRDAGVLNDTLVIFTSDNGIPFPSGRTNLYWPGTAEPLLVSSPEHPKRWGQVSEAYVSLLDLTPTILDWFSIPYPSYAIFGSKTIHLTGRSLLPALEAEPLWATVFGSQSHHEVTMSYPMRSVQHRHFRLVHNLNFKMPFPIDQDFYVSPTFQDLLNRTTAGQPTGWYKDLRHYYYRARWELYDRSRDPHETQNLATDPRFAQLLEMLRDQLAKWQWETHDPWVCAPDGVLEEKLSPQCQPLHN

B1: Bos taurus FGE fusion protein (Lip2pre-BtFGE-6HIS-HDEL) (protein)
chain: GEEAGPEAGAPSLVGSCGCGNPQRPGAQGSSAAAHRYSREANAPGSVPGGRPSPPTKMVPIPAGVFTMGTDDPQIKQDGEAPARRVAIDAFYMDAYEVSNAEFEKFVNSTGYLTEAEKFGDSFVFEGMLSEQVKSDIQQAVAAAPWWLPVKGANWRHPEGPDSTVLHRPDHPVLHVSWNDAVAYCTWAGKRLPTEAEWEYSCRGGLQNRLFPWGNKLQPKGQHYANIWQGEFPVTNTGEDGFRGTAPVDAFPPNGYGLYNIVGNAWEWTSDWWTVHHSAEETINPKGPPSGKDRVKKGGSYMCHKSYCYRYRCAARSQNTPDSSASNLGFRCAADHLPTTGADHLPTTGHHHHHHHDEL
Take B1: in data set [1], the % FGly conversion (nano-LC MS); strain T146 (OXYY1828; BtFGE) is 89.8%; the % FGly conversion (nano-LC MS); strain T146 (OXYY1828; BtFGE), duplicate stood at 92.7%; the % FGly conversion-re-analyzed samples; DG29U5#7, OXYY1828; BtFGE was found to be 95.8%; the % FGly conversion-re-analyzed samples; DG33U6#6, OXYY1803; BtFGE and hPDI co-expressed came to 90.3%. In data set [1], the % FGly conversion-re-analyzed samples; DG33U8#6, OXYY1828; BtFGE is 97.1%; the % FGly conversion; DG33U6#6, OXYY1803; BtFGE and hPDI co-expressed worked out at 79.5%; the “% FGly conversion; two copies of rhIDS and one copy of BtFGE (POX2 driven)” value is reported as 100% FGly conversion at a detection limit of -0.5%; the % active rhIDS (4MU activity against ELISA); 1 copy rhIDS, 1 copy BtFGE (POX) came out at 129%. In data set [1], the % active rhIDS (4MU activity against ELISA); 1 copy rhIDS, 1 copy BtFGE (POX), 1 copy hPDI (POX) stood at 121%; the “% activity of rhIDS; two copies of rhIDS and one copy of BtFGE (POX2 driven)” value amounted to 101% activity; the “Cys->FGly conversion in rhIDS (nano-LC-MS after cation exchange purification); BtFGE as a single POX2 driven copy” value is “complete conversion (100%, with a detection limit of -0.5%)”; the “active rhIDS (4MU fluorogenic activity assay against sandwich ELISA), co-expression in Y. lipolytica” value is “All Y. lipolytica strains co-expressing rFGE with rhIDS resulted in the expression of active rhIDS”. In addition, in data set [2], the % FGly conversion; sample 1, SGSH (POX) + BtFGE (POX) + hPDI (POX) came to 95.4%; the % FGly conversion; sample 2, SGSH (POX) + BtFGE (POX) + hPDI (POX) is 80.4%; the % FGly conversion; sample 3, SGSH (POX) + BtFGE (POX) + hPDI (POX) § was found to be 93.4%; the % FGly conversion; sample 4, SGSH (POX) + BtFGE (POX) + hPDI (POX) § turned out to be 86.1%. Further, in data set [2], the % FGly conversion; sample 5, SGSH (POX) + BtFGE (POX & Hp4d) is 94.4%.

B2: MNS1-BtFGE-6xHis fusion construct (protein)
chain: MSFNIPKTTPNFSAKARKLEDQLWQASGLEKSKDSTLPLYKDKPYGEGFVARTTSGRRRRNIIYGVVVGLLFWAIYTFSRSLDGNVSLKDGIKDYEFKGWKGRGKPKTNWVAEQNAVKQAFVDSWNGYHKYAWGKDVYKPQTKTGKNMGPKPLGWFIVDSLDSGGEEAGPEAGAPSLVGSCGCGNPQRPGAQGSSAAAHRYSREANAPGSVPGGRPSPPTKMVPIPAGVFTMGTDDPQIKQDGEAPARRVAIDAFYMDAYEVSNAEFEKFVNSTGYLTEAEKFGDSFVFEGMLSEQVKSDIQQAVAAAPWWLPVKGANWRHPEGPDSTVLHRPDHPVLHVSWNDAVAYCTWAGKRLPTEAEWEYSCRGGLQNRLFPWGNKLQPKGQHYANIWQGEFPVTNTGEDGFRGTAPVDAFPPNGYGLYNIVGNAWEWTSDWWTVHHSAEETINPKGPPSGKDRVKKGGSYMCHKSYCYRYRCAARSQNTPDSSASNLGFRCAADHLPTTGADHLPTTGHHHHHH
As for B2, in data set [1], the “% FGly conversion; one copy of rhIDS and 2 copies of BtFGE-MNS1” value is 100% FGly conversion; the % active rhIDS (4MU activity against ELISA); 1 copy rhIDS, 2 copy BtFGE-MNS1 (POX/Hp4d) is 98%; the “% activity of rhIDS; one copy of rhIDS and 2 copies of BtFGE-MNS1” value was 81.5% activity.

B3: Tupaia chinensis Lip2-TupFGE-His6-HDEL fusion construct (protein)
chain: EEARTGAGATSAQGPCGCGTPQRPGSHGSSAAAHRYSREANVPGPVPGERQPEATKMVPIPAGVFTMGTDDPQIKQDGEAPARRVAIDAFYMDAYEVSNAEFEKFVNSTGYLTEAEKFGDSFVFEGMLSEQVKTGIQQAVAAAPWWLPVKGANWRHPEGPDSTILHRADHPVLHVSWNDAVAYCTWAGKRLPTEAEWEYSCRGGLQNRLFPWGNKLQPRGQHYANIWQGEFPVTNTAEDGFQGTAPVDAFPPNGYGLYNIVGNAWEWTSDWWTVYHSVEETLNPKGPPSGKDRVKKGGSYMCHKSYCYRYRCAARSQNTPDSSASNLGFRCAADRLPTHHHHHHHDEL
For B3, the % activity of rhIDS; co-expression with TupFGE in data set [1] is 51%.

B4: Columba livia Lip2-C1FGE-His6-HDEL fusion construct (protein)
chain: MVVIPGGVFTMGTDEPAIQQDGEWPVRKVHVNSFYMDRYEVSNEDFERFVNSTGYVTEAEKFGDSFVFEGMLSEEVKAEIHQAVAAAPWWLPVKGANWKHPEGPDSNISNRMDHPVLHVSWNDAVAFCTWAGKRLPTEAEWEYSCRGGLENRLFPWGNKLQPKGQHYANIWQGVFPTNNTAEDGYKGTAPVTAFPPNGYGLYNIVGNAWEWTADWWAVHHSTEEVHNPKGPSSGTDRVKKGGSYMCHKSYCYRYRCAARSQNTPDSSASNLGFRCAADASPELPHHHHHHHDEL
Regarding B4, the % activity of rhIDS; co-expression with ClFGE in data set [1] was 61%.

B5: Gallus gallus Lip2-GgFGE-His6-HDEL fusion construct (protein)
chain: GKETAPGGNCGCSASRSRGGEREAVATVRRYSAAANDGRSSGRGPMVAIPGGVFTMGTDEPEIQQDGEWPARRVHVNSFYMDQYEVSNQEFERFVNSTGYLTEAEKFGDSFVFEGMLSEEVKAEIHQAVAAAPWWLPVKGANWRQPEGPGSSILSRMDHPVLHVSWNDAVAFCTWAGKRLPTEAEWEYGCRGGLEKRLFPWGNKLQPKGQHYANIWQGVFPTNNTAEDGYKGTAPVTAFPPNGYGLYNIVGNAWEWTSDWWAVHHSADEAHNPKGPSSGTDRVKKGGSYMCHKSYCYRYRCAARSQNTPDSSASNLGFRCAADALPDPQHHHHHHHDEL
With B5, in data set [1], the % activity of rhIDS; co-expression with GgFGE was determined as 33%.

B6: Monodelphis domestica Lip2-MdFGE-His6-HDEL fusion construct (protein)
chain: AARGLGSEAGSAAADAAHPAGTCGCGSPQRPGTAAHRYSREANVAEPASAERPVLTSQMAHIPAGVFTMGTDEPQIKQDGEGPARRVRINSFYMDLYEVSNAEFERFVNSTGYVTEAEKFGDSFVFDSMLSDQVKSDIHQAVAAAPWWLPVKGANWRHPEGPDSSILHRRDHPVLHVSWNDAVAYCTWAGKRLPTEAEWEYSCRGGLENRLFPWGNKLQPKGQHYANIWQGEFPVSNTGEDGYQGTAPVTAFPPNGYGLYNIVGNAWEWTSDWWTVHHSADETLDPKGPPSGSDRVKKGGSYMCHKSYCYRYRCAARSQNTPDSSASNLGFRCAADRLPDTHHHHHHHDEL
In the case of B6, the % activity of rhIDS; co-expression with MdFGE in data set [1] turned out to be 58%.

B7: Streptomyces coelicolor FGE fusion protein (Lip2pre-ScFGE-6HIS-HDEL) (protein)
chain: MAVAAPSPAAAAEPGPAARPRSTRGQVRLPGGEFAMGDAFGEGYPADGETPVHTVRLRPFHIDETAVTNARFAAFVKATGHVTDAERFGSSAVFHLVVAAPDADVLGSAAGAPWWINVRGAHWRRPEGARSDITGRPNHPVVHVSWNDATAYARWAGKRLPTEAEWEYAARGGLAGRRYAWGDELTPGGRWRCNIWQGRFPHVNTAEDGHLSTAPVKSYRPNGHGLWNTAGNVWEWCSDWFSPTYYAESPTVDPHGPGTGAARVLRGGSYLCHDSYCNRYRVAARSSNTPDSSSGNLGFRCANDADLTSGSAAEHHHHHHHDEL
With B7, in data set [1], the “active rhIDS (4MU fluorogenic activity assay against sandwich ELISA), co-expression in Y. lipolytica” value is “All Y. lipolytica strains co-expressing rFGE with rhIDS resulted in the expression of active rhIDS”.

For the origin of these results see US20190040368.
